# Data reported in article PMC6624267.
# B1: CARD9^2−97 (CARD9 CARD alone), wild type [human] / itself (parent)
# chain: SDYENDDECWSVLEGFRVTLTSVIDPSRITPYLRQCKVLNPDDEEQVLSDPNLVIRKRKVGVLLDILQRTGHKGYVAFLESLELYYPQLYKKVTGK
# Variants of: B1
# Assay: polymerization assay (absorbance at 350 nm)
# Settings: with itself; 1 mM D43R/K58D + EDTA (parent trace is 150 uM WT + EDTA); 50 mM Tris, 150 mM NaCl, 0.5 mM TCEP, pH 7.0; 25 °C; read off a plot
row,response,Variant
1,1.7 A350,SDYENDDECWSVLEGFRVTLTSVIDPSRITPYLRQCKVLNPRDEEQVLSDPNLVIRDRKVGVLLDILQRTGHKGYVAFLESLELYYPQLYKKVTGK [chain 1 D42R K57D]
